Data reported in PMC4121139.

Target: human serum albumin (human) (UniProt P02768)
Assay: SPR

Substance “albumin-binding domain (ABD) derived from streptococcal protein G (domain or fragment)” has a Kd of 8.1 nM, a koff of 0.00044 s⁻¹ and a kon of 54000 M⁻¹ s⁻¹.
